Experimental data from publication PMC10033563, “Unique alcohol dehydrogenases involved in algal sugar utilization by marine bacteria” (Applied Microbiology and Biotechnology, 2023).
One block for each molecule: values may come before it.

Experiments:
[1] = biological target: zinc-dependent alcohol dehydrogenase from Zobellia galactanivorans DsijT (Zobellia galactanivorans DsijT); assay: crystal structure; enzyme (25 mg/mL) incubated with 20 mM NAD+ overnight; crystals from 0.1 M Tris-HCl pH 7.5, 0.2 M KCl, 20-22% (w/v) PEG 3350 at 22 °C; tetrameric interfaces analysed by PDBePISA; tetramer as a dimer of dimers
ZoADH = biological target: T1, ZoADH (Zobellia galactanivorans, UniProt G0L712); assay: X-ray crystal structure; format: binding; conditions: co-crystallised with 20 mM NAD+, pH 7.5; Zn2+ bound
T1 construct: gene adhI; codon-optimized synthetic gene in pET28a, N-terminal Strep-tag, E. coli BL21(DE3); homotetramer; 2 Zn per monomer
T1 sequence (G0L712 entry or part of it): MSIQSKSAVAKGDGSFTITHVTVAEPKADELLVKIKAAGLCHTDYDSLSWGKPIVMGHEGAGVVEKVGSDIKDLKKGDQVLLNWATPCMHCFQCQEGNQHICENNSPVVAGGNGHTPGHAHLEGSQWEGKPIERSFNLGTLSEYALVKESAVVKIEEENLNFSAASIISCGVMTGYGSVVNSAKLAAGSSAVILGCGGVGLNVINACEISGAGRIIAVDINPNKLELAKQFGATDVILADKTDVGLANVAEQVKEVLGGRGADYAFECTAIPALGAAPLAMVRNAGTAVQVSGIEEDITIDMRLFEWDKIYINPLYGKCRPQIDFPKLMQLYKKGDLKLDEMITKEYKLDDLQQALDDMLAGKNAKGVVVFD

FoADH = biological target: T2, FoADH (Formosa agariphila, UniProt T2KM87); assay: X-ray crystal structure; format: binding; conditions: co-crystallised with 20 mM NAD+, pH 7.5; Zn2+ bound
T2 construct: gene BN863_21030; full-length from genomic DNA in pET28a, N-terminal Strep-tag, E. coli BL21(DE3); homotetramer; 2 Zn per monomer
T2 sequence (T2KM87 1-370): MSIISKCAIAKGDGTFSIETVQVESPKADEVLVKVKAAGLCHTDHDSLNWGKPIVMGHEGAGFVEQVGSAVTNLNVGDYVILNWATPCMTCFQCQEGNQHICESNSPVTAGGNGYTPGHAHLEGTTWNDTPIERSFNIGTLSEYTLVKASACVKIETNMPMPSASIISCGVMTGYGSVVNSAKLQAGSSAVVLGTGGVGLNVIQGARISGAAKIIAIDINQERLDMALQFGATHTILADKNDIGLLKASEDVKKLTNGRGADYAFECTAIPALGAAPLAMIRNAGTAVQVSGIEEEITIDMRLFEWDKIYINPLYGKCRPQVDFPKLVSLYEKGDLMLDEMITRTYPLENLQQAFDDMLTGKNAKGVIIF

[2] = biological target: the molecule itself; assay: crystal structure; enzyme (25 mg/mL) incubated with 20 mM NAD+ overnight; crystals from 0.1 M Tris-HCl pH 7.5, 0.2 M KCl, 20-22% (w/v) PEG 3350 at 22 °C; tetrameric interfaces analysed by PDBePISA; tetramer as a dimer of dimers

- stoichiometry N [1]: 4
Molecule: zinc-dependent alcohol dehydrogenase from Zobellia galactanivorans DsijT (enzyme)

Molecule: NC(=O)c1ccc[n+]([C@@H]2O[C@H](COP(=O)(O)OP(=O)(O)OC[C@H]3O[C@@H](n4cnc5c(N)ncnc54)[C@H](O)[C@@H]3O)[C@@H](O)[C@H]2O)c1 [NAD^+]
- X-ray crystal structure (ZoADH): PDB codes 8H2A (FoADH-NAD) and 8H2B (ZoADH-NAD)
- X-ray crystal structure (FoADH): deposited in the Protein Data Bank under PDB codes 8H2A (FoADH-NAD)

B1: zinc-dependent alcohol dehydrogenase from Formosa agariphila KMM 3901T (enzyme, UniProt T2KM87 1-370, looked up)
chain: T2 sequence (T2KM87 1-370)
notes: FoADH, zinc-dependent alcohol dehydrogenase of Formosa agariphila KMM 3901T (DSM-15362), amplified from genomic DNA into pET28a; the printed insert primers run from the ATG to the stop codon (TTA in the reverse primer); Crystallised with NAD+ and two zinc ions; also called FoADH; ADH; source: E. coli BL21 (DE3), purified (Strep-Tactin XT Sepharose, size exclusion chromatography)
- stoichiometry N [2]: 4
